The values below come from article PMC4730206, “The solution configurations of inactive and activated DntR have implications for the sliding dimer mechanism of LysR transcription factors” (Scientific Reports, 2016).

One experiment addresses T1, DntR (DntR-His6) (Burkholderia sp. DNT, UniProt Q7WT50).
T1 construct: full-length, C-terminal His6 tag (DntR-His6), recombinant, modelled to H303, homotetramer
T1 sequence (Q7WT50 1-301): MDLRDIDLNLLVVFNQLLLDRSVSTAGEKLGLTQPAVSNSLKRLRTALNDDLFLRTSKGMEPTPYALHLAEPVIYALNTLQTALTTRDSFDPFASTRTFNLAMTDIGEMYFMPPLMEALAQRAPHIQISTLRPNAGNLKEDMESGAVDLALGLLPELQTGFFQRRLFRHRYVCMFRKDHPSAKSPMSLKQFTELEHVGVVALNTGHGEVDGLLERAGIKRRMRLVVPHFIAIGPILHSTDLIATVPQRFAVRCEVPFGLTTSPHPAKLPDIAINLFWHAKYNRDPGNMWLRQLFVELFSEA
In words: Thermofluor thermal stability assay. The format is binding. The settings on record: 100 µM sodium salicylate; inducer; apo-protein reference Tm in the 2nd table, row 4. The text has this: Thermofluor thermal stability assay on DntR (DntR-His6)
On the technique in general: In DSF a fluorescence change marks the thermal transition of the protein.

Experiment [1] deals with DntR-His6 from Burkholderia sp. (wild type) (Burkholderia sp.) (UniProt Q7WT50). Kind of experiment: SAXS; static SAXS of apo-DntR pre-incubated with 100 μM sodium salicylate (holo-DntR); repeated as SEC-SAXS with 5 mM salicylate; rigid body modelling of a tetramer. Background: SEC sorts molecules by how far they enter the pores of the column.
The target is the same in experiment [2]. Kind of experiment: crystal structure; apo-DntR crystals, hanging drops at 18 °C, 0.2 M sodium potassium tartrate, 0.1 M Tris-HCl pH 8.0, 5% PEG 6000; space group P6(5)22, two monomers in the asymmetric unit, tetramer from two symmetry-related dimers.
Experiment [3] has the same target. In words: SAXS; static SAXS without inducer, in 1 M NaCl, 2 mM MgSO4, 1 mM DTT, 17% glycerol, 25 mM NaH2PO4-NaOH pH 8.0; apo-DntR at 3, 1 and 0.5 mg/mL (repeated as SEC-SAXS on Superdex 200), H169T-DntR at 0.7 mg/mL; fits to tetramer models.
The target of experiment [4] is H169T-DntR-His6 (Burkholderia sp.) (UniProt Q7WT50). Kind of experiment: crystal structure; H169T-DntR crystals, 0.2 M sodium tartrate, 0.2 M potassium thiocyanate, 0.5 mM sodium salicylate, 0.1 M Tris pH 8.5, 20% PEG 8000; thiocyanate bound; space group P6(5)22, dimer in the asymmetric unit, tetramer from two symmetry-related dimers.
For experiment [5] the target is unchanged. Kind of experiment: SAXS; static SAXS without inducer, in 1 M NaCl, 2 mM MgSO4, 1 mM DTT, 17% glycerol, 25 mM NaH2PO4-NaOH pH 8.0; apo-DntR at 3, 1 and 0.5 mg/mL (repeated as SEC-SAXS on Superdex 200), H169T-DntR at 0.7 mg/mL; fits to tetramer models.

With `O=C(O)c1ccccc1O` [salicylate], the “Tm (^oC)” value at DntR (DntR-His6) stood at 51 °C.
Usually stoichiometry N stands for the number of molecules, sites or subunits per partner or assembly. “DntR-His6 from Burkholderia sp. (wild type) (from UniProt Q7WT50 1-301) (natural protein)”: the stoichiometry N in experiment [1], in experiment [2] and in experiment [3] was 4 in each case.
Take “H169T-DntR-His6 (from UniProt Q7WT50 1-301) (natural protein)”: the stoichiometry N in experiment [4] and in experiment [5] was 4 throughout.
